{
  "source": "paper PMC1669725",
  "target": "Sp1 zinc-finger DNA-binding domain (truncated Sp1) (UniProt P08047 619-774)",
  "sequence (P08047 619-774)": "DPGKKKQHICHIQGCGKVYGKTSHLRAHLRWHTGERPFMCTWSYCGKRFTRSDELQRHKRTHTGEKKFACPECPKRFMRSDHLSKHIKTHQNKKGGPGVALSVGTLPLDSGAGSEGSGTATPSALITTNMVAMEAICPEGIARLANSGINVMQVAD",
  "assay": "fluorescence correlation spectroscopy",
  "data": [
    {"binder": "HIV LTR Sp1 site 23 bp (dsDNA) DNA 1: ACTTTCCAGGGAGGCGTGGCCTG DNA 2: CAGGCCACGCCTCCCTGGAAAGT", "values": [
      {"measurement": "Kd", "value": "0.032 ± 0.002", "unit": "µM"}
    ]}
  ]
}
